Results published in patent US9221867B2, “Method for transporting a compound across the blood-brain barrier” (Angiochem Inc., priority 2003, dated 2015).

Legend:
[1] = system: bovine brain capillary endothelial cells (BBCECs); assay: Transcytosis of 125I-proteins across BBCEC monolayers (in vitro blood-brain barrier model); conditions: for Transcytosis: across in vitro BBB model; for Ratios Aprotinin/Protein / Ratios (x-fold), 125I-proteins transcytosis across BBCEC monolayers: aprotinin transcytosis divided by that of the named protein; for Ratios (x-fold), 125I-proteins transcytosis across BBCEC monolayers: 250 nM
Method: The model consists of a co-culture of bovine brain capillary endothelial cells and rat glial cells.
The in vitro model of BBB was established by using a co-culture of BBCECs and astrocytes. Prior to cell culture, plate inserts (Millicell-PC 3.0 μM; 30-mm diameter) were coated on the upper side with rat tail collagen. They were then set in six-well microplates containing the astrocytes and BBCECs were plated on the upper side of the filters in 2 mL of co-culture medium. This BBCEC medium was changed three times a week. Under these conditions, differentiated BBCECs formed a confluent monolayer 7 days later. Experiments were performed between 5 and 7 days after confluence was reached. The permeability coefficient for sucrose was measured to verify the endothelial permeability.
Briefly, after removing the meninges, the brain tissue was forced gently through a 82 μm nylon sieve. Astrocytes were plated on six-well microplates at a concentration of 1.2×10^5 cells/mL in 2 mL of optimal culture medium (DMEM) supplemented with 10% heat inactivated fetal bovine serum. The medium was changed twice a week.
Bovine brain capillary endothelial cells (BBCECs) were obtained from Cellial Technologies. The cells were cultured in the presence of DMEM medium supplemented with 10% (v/v) horse serum and 10% heat-inactivated calf serum, 2 mM of glutamine, 50 μg/mL of gentamycin, and 1 ng/mL of basic fibroblast growth factor, added every other day.
One insert covered with BBCECs was set into a six-well microplate with 2 mL of Ringer-Hepes and was pre-incubated for 2 h at 37° C. [^125I]-aprotinin, [^125I]-p97, [^125I]-ceruloplasmin or [^125I]-transferrin (250 nM final concentration) was added to the upper side of the filter covered with cells. At various times, the insert was transferred to another well to avoid a possible reendocytosis of [^125I]-proteins by the abluminal side of the BBCECs. At the end of experiment, [^125I]-proteins were assessed in 500 μL of the lower chamber of well by TCA precipitation.
Aprotinin, p97 and bovine holo-transferrin were iodinated with standard procedures using iodo-beads from Sigma™. Bovine holo-transferrin was diluted in 0.1M phosphate buffer, pH 6.5 (PB). P97 obtained from Synapse Technologies in neutralized citrate at pH 7.0 was dialyzed against this PB. Two iodo-beads were used for each protein. These beads were washed twice with 3 mL of PB on a Whatman™ filter and resuspended in 60 μL of PB. ^125I (1 mCi) from Amersham-Pharmacia biotech was added to the bead suspension for 5 minutes at room temperature. The iodination for each protein was initiated by the addition of 100 μg (80-100 μL).

[2] = system: endothelial cell monolayers (in vitro blood-brain barrier model); assay: Permeability coefficient (Pe) of proteins in the in vitro blood-brain barrier model
Method: The permeability coefficient (Pe) was calculated as:
At the end of the experiments, amounts of the radiotracers in the basolateral compartment were measured in a liquid scintillation counter. The permeability coefficient (Pe) for sucrose was calculated as previously described (Dehouck, M. P., Jolliet-Riant, P., Brée, F., Fruchart, J. C., Cecchelli, R., Tillement, J. P., J. Neurochem. 58:1790-1797, 1992) using filters coated or non-coated with EC.
The transport of Angio-pep1 from the apical-to-basolateral side of inserts covered with or without endothelial cell monolayers was measured. The results are expressed as the clearance of Angio-pep1 as a function of time. The slopes correspond to the permeability of the peptide through the filter alone (Psf) and to the total permeability of the endothelial cell monolayers (Pst).
The permeability coefficients for Angio-pep1, aprotinin, leptin and transferrin were determined using the in vitro blood-brain barrier model. The permeability coefficient (Pe) was calculated as described above.

Molecule	Transcytosis [1] [pmol/h/cm^2]	Ratios Aprotinin/Protein [1]	Ratios (x-fold), 125I-proteins transcytosis across BBCEC monolayers [1] [x-fold]	Ratios (permeability coefficients) ([2]; Pe of Angio-pep1 divided by Pe of the named protein)	Permeability coefficient (Pe) ([2]; in vitro blood-brain barrier model) [×10⁻⁶ cm/s]	effect on aprotinin transcytosis ([1]; [125I]-aprotinin 250 nM with or without RAP, 37° C., FIG. 14)
Lactoferrin: comparison protein in transcytosis experiment (protein, UniProt P02788 20-710, looked up) Lactotransferrin: GRRRSVQWCAVSQPEATKCFQWQRNMRKVRGPPVSCIKRDSPIQCIQAIAENRADAVTLDGGFIYEAGLAPYKLRPVAAEVYGTERQPRTHYYAVAVVKKGGSFQLNELQGLKSCHTGLRRTAGWNVPIGTLRPFLNWTGPPEPIEAAVARFFSASCVPGADKGQFPNLCRLCAGTGENKCAFSSQEPYFSYSGAFKCLRDGAGDVAFIRESTVFEDLSDEAERDEYELLCPDNTRKPVDKFKDCHLARVPSHAVVARSVNGKEDAIWNLLRQAQEKFGKDKSPKFQLFGSPSGQKDLLFKDSAIGFSRVPPRIDSGLYLGSGYFTAIQNLRKSEEEVAARRARVVWCAVGEQELRKCNQWSGLSEGSVTCSSASTTEDCIALVLKGEADAMSLDGGYVYTAGKCGLVPVLAENYKSQQSSDPDPNCVDRPVEGYLAVAVVRRSDTSLTWNSVKGKKSCHTAVDRTAGWNIPMGLLFNQTGSCKFDEYFSQSCAPGSDPRSNLCALCIGDEQGENKCVPNSNERYYGYTGAFRCLAENAGDVAFVKDVTVLQNTDGNNNEAWAKDLKLADFALLCLDGKRKPVTEARSCHLAMAPNHAVVSRMDKVERLKQVLLHQQAKFGRNGSDCPDKFCLFQSETKNLLFNDNTECLARLHGKTTYEKYLGPQYVAGITNLKKCSTSPLLEACEFLRK	0.05	50	–	–	–	–
Melanotransferrin (p97): comparison protein, p97 obtained from Synapse Technologies (protein, UniProt P08582 20-709, looked up) Melanotransferrin: GMEVRWCATSDPEQHKCGNMSEAFREAGIQPSLLCVRGTSADHCVQLIAAQEADAITLDGGAIYEAGKEHGLKPVVGEVYDQEVGTSYYAVAVVRRSSHVTIDTLKGVKSCHTGINRTVGWNVPVGYLVESGRLSVMGCDVLKAVSDYFGGSCVPGAGETSYSESLCRLCRGDSSGEGVCDKSPLERYYDYSGAFRCLAEGAGDVAFVKHSTVLENTDGKTLPSWGQALLSQDFELLCRDGSRADVTEWRQCHLARVPAHAVVVRADTDGGLIFRLLNEGQRLFSHEGSSFQMFSSEAYGQKDLLFKDSTSELVPIATQTYEAWLGHEYLHAMKGLLCDPNRLPPYLRWCVLSTPEIQKCGDMAVAFRRQRLKPEIQCVSAKSPQHCMERIQAEQVDAVTLSGEDIYTAGKTYGLVPAAGEHYAPEDSSNSYYVVAVVRRDSSHAFTLDELRGKRSCHAGFGSPAGWDVPVGALIQRGFIRPKDCDVLTAVSEFFNASCVPVNNPKNYPSSLCALCVGDEQGRNKCVGNSQERYYGYRGAFRCLVENAGDVAFVRHTTVFDNTNGHNSEPWAAELRSEDYELLCPNGARAEVSQFAACNLAQIPPHAVMVRPDTNIFTVYGLLDKAQDLFGDDHNKNGFKMFDSSNYHGQDLLFKDATVRAVPVGEKTTYRGWLGLDYVAALEGMSSQQC	0.28	10	8.2	–	–	–
ceruloplasmin: comparison protein in transcytosis experiments (protein, UniProt P00450 20-1065, looked up) Ceruloplasmin: KEKHYYIGIIETTWDYASDHGEKKLISVDTEHSNIYLQNGPDRIGRLYKKALYLQYTDETFRTTIEKPVWLGFLGPIIKAETGDKVYVHLKNLASRPYTFHSHGITYYKEHEGAIYPDNTTDFQRADDKVYPGEQYTYMLLATEEQSPGEGDGNCVTRIYHSHIDAPKDIASGLIGPLIICKKDSLDKEKEKHIDREFVVMFSVVDENFSWYLEDNIKTYCSEPEKVDKDNEDFQESNRMYSVNGYTFGSLPGLSMCAEDRVKWYLFGMGNEVDVHAAFFHGQALTNKNYRIDTINLFPATLFDAYMVAQNPGEWMLSCQNLNHLKAGLQAFFQVQECNKSSSKDNIRGKHVRHYYIAAEEIIWNYAPSGIDIFTKENLTAPGSDSAVFFEQGTTRIGGSYKKLVYREYTDASFTNRKERGPEEEHLGILGPVIWAEVGDTIRVTFHNKGAYPLSIEPIGVRFNKNNEGTYYSPNYNPQSRSVPPSASHVAPTETFTYEWTVPKEVGPTNADPVCLAKMYYSAVEPTKDIFTGLIGPMKICKKGSLHANGRQKDVDKEFYLFPTVFDENESLLLEDNIRMFTTAPDQVDKEDEDFQESNKMHSMNGFMYGNQPGLTMCKGDSVVWYLFSAGNEADVHGIYFSGNTYLWRGERRDTANLFPQTSLTLHMWPDTEGTFNVECLTTDHYTGGMKQKYTVNQCRRQSEDSTFYLGERTYYIAAVEVEWDYSPQREWEKELHHLQEQNVSNAFLDKGEFYIGSKYKKVVYRQYTDSTFRVPVERKAEEEHLGILGPQLHADVGDKVKIIFKNMATRPYSIHAHGVQTESSTVTPTLPGETLTYVWKIPERSGAGTEDSACIPWAYYSTVDQVKDLYSGLIGPLIVCRRPYLKVFNPRRKLEFALLFLVFDENESWYLDDNIKTYSDHPEKVNKDDEEFIESNKMHAINGRMFGNLQGLTMHVGDEVNWYLMGMGNEIDLHTVHFHGHSFQYKHRGVYSSDVFDIFPGTYQTLEMFPRTPGIWLLHCHVTDHIHAGMETTYTVLQNEDTKSG	–	–	44.0	–	–	–
Transferrin: comparison protein, bovine holo-transferrin (protein, UniProt Q29443 20-704, looked up, holo (iron-loaded)) Serotransferrin: DPERTVRWCTISTHEANKCASFRENVLRILESGPFVSCVKKTSHMDCIKAISNNEADAVTLDGGLVYEAGLKPNNLKPVVAEFHGTKDNPQTHYYAVAVVKKDTDFKLNELRGKKSCHTGLGRSAGWNIPMAKLYKELPDPQESIQRAAANFFSASCVPCADQSSFPKLCQLCAGKGTDKCACSNHEPYFGYSGAFKCLMEGAGDVAFVKHSTVFDNLPNPEDRKNYELLCGDNTRKSVDDYQECYLAMVPSHAVVARTVGGKEDVIWELLNHAQEHFGKDKPDNFQLFQSPHGKDLLFKDSADGFLKIPSKMDFELYLGYEYVTALQNLRESKPPDSSKDECMVKWCAIGHQERTKCDRWSGFSGGAIECETAENTEECIAKIMKGEADAMSLDGGYLYIAGKCGLVPVLAENYKTEGESCKNTPEKGYLAVAVVKTSDANINWNNLKDKKSCHTAVDRTAGWNIPMGLLYSKINNCKFDEFFSAGCAPGSPRNSSLCALCIGSEKGTGKECVPNSNERYYGYTGAFRCLVEKGDVAFVKDQTVIQNTDGNNNEAWAKNLKKENFEVLCKDGTRKPVTDAENCHLARGPNHAVVSRKDKATCVEKILNKQQDDFGKSVTDCTSNFCLFQSNSKDLLFRDDTKCLASIAKKTYDSYLGDDYVRAMTNLRQCSTSKLLEACTFHKP	0.14	19	11.6	210	0.095	–
receptor-associated protein (RAP): LRP antagonist, receptor-associated protein (protein, UniProt P30533 35-357, looked up) Alpha-2-macroglobulin …: YSREKNQPKPSPKRESGEEFRMEKLNQLWEKAQRLHLPPVRLAELHADLKIQERDELAWKKLKLDGLDEDGEKEARLIRNLNVILAKYGLDGKKDARQVTSNSLSGTQEDGLDDPRLEKLWHKAKTSGKFSGEELDKLWREFLHHKEKVHEYNVLLETLSRTEEIHENVISPSDLSDIKGSVLHSRHTELKEKLRSINQGLDRLRRVSHQGYSTEAEFEEPRVIDLWDLAQSANLTDKELEAFREELKHFEAKIEKHNHYQKQLEIAHEKLRHAESVGDGERVSRSREKHALLEGRTKELGYTVKKHLQDLSGRISRARHNEL	–	–	–	–	–	inhibition
